Laboratory results published in patent US20250281587A1 (ELANCO US, published 2025).

Molecular target: T1, recombinant mouse IL-1RI Fc chimera (R&D 771-MR-100) (mouse, UniProt P13504 20-338)
T1 construct: Coated on ELISA plates at 1 µg/ml; Used instead of canine or feline IL-1RI, which were not commercially available; also called IL-1RI receptor; Fc part of the bought chimera not given
T1 sequence (looked up): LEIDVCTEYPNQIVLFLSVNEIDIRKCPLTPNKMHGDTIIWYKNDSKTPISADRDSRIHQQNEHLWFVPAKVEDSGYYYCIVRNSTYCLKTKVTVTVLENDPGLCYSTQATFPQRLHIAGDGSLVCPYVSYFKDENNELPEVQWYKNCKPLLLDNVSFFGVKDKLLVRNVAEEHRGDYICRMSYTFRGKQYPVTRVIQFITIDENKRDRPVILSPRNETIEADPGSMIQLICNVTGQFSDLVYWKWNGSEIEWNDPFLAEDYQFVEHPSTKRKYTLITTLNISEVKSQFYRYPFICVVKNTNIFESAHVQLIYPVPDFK
Assay: ELISA, mouse IL-1RI Fc chimera coated, detection with biotinylated anti-fIL-1β antibody

B1: purified feline IL-1β wild type (ligand)
chain: MGSAAIQSQDYTFRDISQKSLVLSGSYELRALHLNGQNMNQQVVFRMSFVHGEENSKKIPVVLCIKKNNLYLSCVMKDGKPTLQLEMLDPKVYPKKKMEKRFVFNKTEIKGNVEFESSQFPNWYISTSQAEEMPVFLGNTKGGQDITDFIMESASTSHHHHHHGGCG
notes: also called purified wild type feline IL-1β; recombinant feline wild type IL-1β
B1: binds.
